# Measured values as given in PMC8983844.
# Biological target: protein A (UniProt P38507)
# Assay: spectral-domain phase-sensitive interferometry (SD-PSI), label-free; protein A (0.5 mg/ml) adsorbed on a dopamine layer on a glass chip (0.17 or 0.20 mm) and blocked with protein-free blocking solution; IgG solution (20 ug/ml mouse IgG; gradient of 10, 20, 30, 50 ug/ml IgG) passed through the flow chamber; PBS washes; reference path without protein A
substance,measurement,value
mouse IgG (antibody),phase change at 20 ug/ml IgG,0.04 rad
same,thickness variation at 10 ug/ml IgG,1.86 nm
same,thickness variation at 20 ug/ml IgG,3.76 nm
same,thickness variation at 30 ug/ml IgG,5.45 nm
same,thickness variation at 50 ug/ml IgG,10.1 nm
